Experimental data taken from publication PMC10397247.
Read-outs that look alike come from different tables or passages of the source.

T1: 4H370-bA
T1 chain: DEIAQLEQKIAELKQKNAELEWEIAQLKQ

T2: 4H883-bA
T2 chain: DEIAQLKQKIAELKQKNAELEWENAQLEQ

T3: 4H953-bA
T3 chain: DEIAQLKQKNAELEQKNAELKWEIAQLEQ

T4: 4H3427-bA
T4 chain: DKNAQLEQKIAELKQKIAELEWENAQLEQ

T5: 4H454-bA
T5 chain: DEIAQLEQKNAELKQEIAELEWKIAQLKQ

T6: 4H717-bA
T6 chain: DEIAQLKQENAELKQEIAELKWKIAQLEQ

T7: 4H918-bA
T7 chain: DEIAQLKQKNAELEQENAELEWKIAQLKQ

T8: 4H3855-bA
T8 chain: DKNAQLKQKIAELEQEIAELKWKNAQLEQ

T9: 4H462-bA
T9 chain: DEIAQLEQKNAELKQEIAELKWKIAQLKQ

T10: 4H607-bA
T10 chain: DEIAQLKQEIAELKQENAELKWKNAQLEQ

T11: 4H797-bA
T11 chain: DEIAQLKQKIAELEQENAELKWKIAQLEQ

T12: 4H908-bA
T12 chain: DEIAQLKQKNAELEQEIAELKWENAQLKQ

T13: 4H687-bA
T13 chain: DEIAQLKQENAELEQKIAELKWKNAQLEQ

T14: 4H568-bA
T14 chain: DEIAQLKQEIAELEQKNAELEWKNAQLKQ

T15: 4H3354-bA
T15 chain: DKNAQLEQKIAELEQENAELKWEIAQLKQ

T16: 4H3606-bA
T16 chain: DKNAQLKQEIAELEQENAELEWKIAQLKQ

T17: 4H4001-bA
T17 chain: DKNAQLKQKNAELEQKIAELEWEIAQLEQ

T18: 4H754-bA
T18 chain: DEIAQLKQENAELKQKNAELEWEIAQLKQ

T19: 4H967-bA
T19 chain: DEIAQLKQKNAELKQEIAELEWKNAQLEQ

T20: 4H338-bA
T20 chain: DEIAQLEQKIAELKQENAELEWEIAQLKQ

T21: 4H3782-bA
T21 chain: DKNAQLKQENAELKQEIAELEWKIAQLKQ

T22: 4H3843-bA
T22 chain: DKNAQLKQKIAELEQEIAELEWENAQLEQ

T23: 4H72-bA
T23 chain: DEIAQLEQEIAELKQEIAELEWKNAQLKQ

T24: 4H331-bA
T24 chain: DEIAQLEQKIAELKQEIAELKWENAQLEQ


Columns and labels:
Assay in all cases: two-hybrid library CCNG1;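 also: natural log of median RNA to DNA barcode read ratio; higher means stronger binding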
4H370-bA = molecular target: T1, 4H370-bA
4H883-bA = molecular target: T2, 4H883-bA
4H953-bA = molecular target: T3, 4H953-bA
4H3427-bA = molecular target: T4, 4H3427-bA
4H454-bA = molecular target: T5, 4H454-bA
4H717-bA = molecular target: T6, 4H717-bA
4H918-bA = molecular target: T7, 4H918-bA
4H3855-bA = molecular target: T8, 4H3855-bA
4H462-bA = molecular target: T9, 4H462-bA
4H607-bA = molecular target: T10, 4H607-bA
4H797-bA = molecular target: T11, 4H797-bA
4H908-bA = molecular target: T12, 4H908-bA
4H687-bA = molecular target: T13, 4H687-bA
4H568-bA = molecular target: T14, 4H568-bA
4H3354-bA = molecular target: T15, 4H3354-bA
4H3606-bA = molecular target: T16, 4H3606-bA
4H4001-bA = molecular target: T17, 4H4001-bA
4H754-bA = molecular target: T18, 4H754-bA
4H967-bA = molecular target: T19, 4H967-bA
4H338-bA = molecular target: T20, 4H338-bA
4H3782-bA = molecular target: T21, 4H3782-bA
4H3843-bA = molecular target: T22, 4H3843-bA
4H72-bA = molecular target: T23, 4H72-bA
4H331-bA = molecular target: T24, 4H331-bA

interaction score (4H370-bA) | interaction score (4H883-bA) | interaction score (4H953-bA) | interaction score (4H918-bA) | interaction score (4H607-bA) | interaction score (4H797-bA) | interaction score (4H687-bA) | interaction score (4H568-bA) | interaction score (4H4001-bA) | interaction score (4H967-bA) | interaction score (4H3782-bA) | interaction score (4H3843-bA) | interaction score (4H72-bA) | Binder | also measured
-0.724 | -0.483 | -1.28 | -0.884 | -1.42 | -0.644 | -0.899 | -0.11 | 0.0797 | -1.16 | -0.0209 | 0.72 | 1.23 | DEIAQLEQKIAELKQEIAELKWENAQLEQ [4H331-bA] | interaction score (4H3427-bA): 0.677; interaction score (4H454-bA): 0.885; interaction score (4H717-bA): -1.06; interaction score (4H3855-bA): 0.317; interaction score (4H462-bA; mean of both orientations): -0.426; interaction score (4H908-bA): -1.83; interaction score (4H3354-bA): -0.749; interaction score (4H3606-bA): -0.929; interaction score (4H754-bA): -0.893; interaction score (4H338-bA): -0.867; interaction score (4H331-bA): -0.244
1.25 | 0.708 | 0.309 | -0.427 | -0.936 | -1.09 | -0.711 | -0.435 | -0.523 | 0.947 | 0.289 | -0.812 | -2.04 | DKNAQLKQEIAELEQENAELEWKIAQLKQ [4H3606-bA] | interaction score (4H462-bA): -1.18; interaction score (4H3606-bA; mean of both orientations): -0.112
